We go through 1 molecule from patent EP4703474A1, “ANTI-LRRC15 ANTIBODY” (priority 2023, dated 2024).

Assay [1] concerns Pancreatic carcinoma cell line BxPC-3 and human adipose tissue-derived mesenchymal stem cells. The assay can be described thus: In vivo antitumor effect, BxPC-3 co-transplanted with mesenchymal stem cells. The note with it: BxPC-3 and MSC at 1:3; 0.4 mg/kg, tail vein, on Day 27; female SCID mice. On the procedure:
(§1) The antitumor effects of the antibody-drug conjugates were evaluated by using animal models in which cells of a human tumor cell line had been transplanted into immunodeficient mice, or cells of a mouse tumor cell line had been transplanted into immunocompetent mice. 4 to 6 Week-old SCID mice (CB17/Icr-Prkdc[scid]/CrlCrlj, Jackson Laboratory Japan, Inc.), NSG mice (NOD.Cg-Prkdcscid Il2rgtm1Wjl/SzJ, Jackson Laboratory Japan, Inc.), or B6J mice (C57BL/6J, Jackson Laboratory Japan, Inc.) were habituated for 3 days or more under SPF conditions before experimental use. The mice were fed with sterilized solid feed and given sterilized tap water. The major and minor diameters of the transplanted tumors were measured twice a week with an electronic digital caliper (Mitutoyo Corporation), and the estimated tumor volume was calculated using the following formula. Estimated tumor volume (mm^3) = 1/2 × major diameter (mm) × [minor diameter (mm)]^2 All antibody-drug conjugates were diluted with ABS and administered into the tail vein at doses shown in each Example. In addition, ABS (vehicle) or control hIgG-PBD prepared in Reference Example 4 was administered as the control group, in a similar manner. 5 to 6 Mice were used per group in the experiment. To analyze the LRRC15 expression in mouse tumor models, immunohistochemical staining of LRRC15 was performed. […]

In assay [2] the test system is Gastric carcinoma cell line Caki-1. As to the kind of experiment: In vivo antitumor effect, Caki-1 subcutaneous transplant model. The note with it: 0.4 mg/kg, tail vein, on Day 21, female SCID mice. Here is the method:
as §1

B1: H02L01-V1-PBD (conjugate)
heavy: EVQLVESGGGLVQPGGSLRLSCAASGFTFRDYYMAWVRQAPGKGLEWVSSIGFDESRTYYADSVKGRFTISRDDSKNTLYLQMNSLRAEDTAVYYCARHGVSKYSGDNWFAYWGQGTLVTVSSASTKGPSVFPLAPSSKSTSGGTAALGCLVKDYFPEPVTVSWNSGALTSGVHTFPAVLQSSGLYSLSSVVTVPSSSLGTQTYICNVNHKPSNTKVDKKVEPKSCDKTHTCPPCPAPEAAGGPSVFLFPPKPKDTLMISRTPEVTCVVVDVSHEDPEVKFNWYVDGVEVHNAKTKPREEQYNSTYRVVSVLTVLHQDWLNGKEYKCKVSNKALAAPIEKTISKAKGQPREPQVYTLPPSREEMTKNQVSLTCLVKGFYPSDIAVEWESNGQPENNYKTTPPVLDSDGSFFLYSKLTVDKSRWQQGNVFSCSVMHEALHNHYTQKSLSLSPGK
light: DIQMTQSPSSLSASVGDRVTITCKSSQGLLYSGDQKNYLAWYQQKPGKAPKLLIYWASTRQSGVPSRFSGSGSGTDFTLTISSLQPEDFATYYCQQYYDPPYTFGQGTKVEIKRTVAAPSVFIFPPSDEQLKSGTASVVCLLNNFYPREAKVQWKVDNALQSGNSQESVTEQDSKDSTYSLSSTLTLSKADYEKHKVYACEVTHQGLSSPVTKSFNRGEC
For the molecule B1, the “antitumor effect (estimated tumor volume)” value was “antitumor activity higher than that of the vehicle and control hIgG-PBD” in assay [1]; “antitumor activity higher than that of the vehicle and control hIgG-PBD” in assay [2].
